# Assay results as given in patent US7662583B2, “Bioreactor containing cells expressing glycosyltransferase nucleic acids isolatable from Arabidopsis” (The University of York, priority 2003, dated 2010).
# Assays:
# [1] = UGT enzyme reaction with quercetin (recombinant UGTs, HPLC); assay type: biochemical, Arabidopsis; settings: for Specific activity (nkat/mg protein) 3-O-glc: quercetin glucosylated at 3-OH; for Specific activity (nkat/mg protein) 3-O-glc / Specific activity (nkat/mg protein) 3′-O-glc / Specific activity (nkat/mg protein) 4′-O-glc / Specific activity (nkat/mg protein) 7-O-glc: 0.5 mM quercetin, 5 mM UDP-glucose, 30° C.; for Specific activity (nkat/mg protein) 3′-O-glc: quercetin glucosylated at 3′-OH; for Specific activity (nkat/mg protein) 4′-O-glc: quercetin glucosylated at 4′-OH; for Specific activity (nkat/mg protein) 7-O-glc: quercetin glucosylated at 7-OH; for di-O-glucoside formation from quercetin: low substrate concentration, time parameter varied
# Procedure, shortened: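 Recombinant Arabidopsis UGTs (2 μg) incubated with 0.5 mM quercetin and 5 mM UDP-glucose in 100 mM Tris-HCl pH 7.0 at 30 °C for 1 h. Quercetin glucosides separated from aglycone by reverse-phase C18 HPLC (acetonitrile gradient, 0.1% TFA), detected at 370 nm.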
# [2] = Whole-cell biocatalyst assay, E. coli expressing UGT in culture medium; assay type: cell-based
# Procedure: FIG. 14 Whole-cell biocatalyst assay using UGT71C1. E. coli cells expressing recombinant were used in the biocatalyst assay. After incubation with 0.1 mM quercetin and 0.1 mM IPTG, cells were collected by centrifugation, extracted with 80% methanol and both the cell extracts (pellet) and culture medium (supernatant) were analysed using HPLC. (A) Changes in the combined amounts of aglycone/glucoside over a time-course of 0-48 h. (B) Changes in the level of different glucosides and aglycone in the culture medium over the same time-course.
# Using the foundation established in the preceding example, we went on to investigate the potential of E. coli expressing plant UGTs as whole-cell biocatalysts to synthesise glucosides of quercetin. In the first instance, we used E. coli grown in 75 ml of standard culture medium. […] Table 2 describes results in which 7 different UGTs are expressed in E. coli and the identity and quantity of different glucosides recovered in the medium were analysed by HPLC. […] There was considerable variation in the level of different glucosides synthesised by the cells, although even under these non-optimised conditions, each of the four monoglucosides and two di-O-glucosides could be formed.
# [3] = E. coli, 2x YT medium, 0.1 mM IPTG, 0.1 mM quercetin, 24 h
molecule,measurement,setting,value
"UGT71B1: Arabidopsis recombinant glycosyltransferase (protein, UniProt Q9LSY9 1-473, looked up) UDP-glycosyltransferase 71B1: MKVELVFIPSPGVGHIRATTALAKLLVASDNRLSVTLIVIPSRVSDDASSSVYTNSEDRLRYILLPARDQTTDLVSYIDSQKPQVRAVVSKVAGDVSTRSDSRLAGIVVDMFCTSMIDIADEFNLSAYIFYTSNASYLGLQFHVQSLYDEKELDVSEFKDTEMKFDVPTLTQPFPAKCLPSVMLNKKWFPYVLGRARSFRATKGILVNSVADMEPQALSFFSGGNGNTNIPPVYAVGPIMDLESSGDEEKRKEILHWLKEQPTKSVVFLCFGSMGGFSEEQAREIAVALERSGHRFLWSLRRASPVGNKSNPPPGEFTNLEEILPKGFLDRTVEIGKIISWAPQVDVLNSPAIGAFVTHCGWNSILESLWFGVPMAAWPIYAEQQFNAFHMVDELGLAAEVKKEYRRDFLVEEPEIVTADEIERGIKCAMEQDSKMRKRVMEMKDKLHVALVDGGSSNCALKKFVQDVVDNVP",Specific activity (nkat/mg protein) 3-O-glc,[1],1.85 nkat/mg protein
same,Specific activity (nkat/mg protein) 3′-O-glc,[1],— (Activity lower than 0.02 nkat/mg protein has been considered as trace activity and is not shown in the Table.)
same,Specific activity (nkat/mg protein) 4′-O-glc,[1],— (Activity lower than 0.02 nkat/mg protein has been considered as trace activity and is not shown in the Table.)
same,Specific activity (nkat/mg protein) 7-O-glc,[1],— (Activity lower than 0.02 nkat/mg protein has been considered as trace activity and is not shown in the Table.)
"UGT73B5: Arabidopsis recombinant glycosyltransferase (protein, UniProt Q9ZQG4 1-484, looked up) UDP-glycosyltransferase 73B5: MNREVSERIHILFFPFMAQGHMIPILDMAKLFSRRGAKSTLLTTPINAKIFEKPIEAFKNQNPDLEIGIKIFNFPCVELGLPEGCENADFINSYQKSDSGDLFLKFLFSTKYMKQQLESFIETTKPSALVADMFFPWATESAEKLGVPRLVFHGTSFFSLCCSYNMRIHKPHKKVATSSTPFVIPGLPGDIVITEDQANVAKEETPMGKFMKEVRESETNSFGVLVNSFYELESAYADFYRSFVAKRAWHIGPLSLSNRELGEKARRGKKANIDEQECLKWLDSKTPGSVVYLSFGSGTNFTNDQLLEIAFGLEGSGQSFIWVVRKNENQGDNEEWLPEGFKERTTGKGLIIPGWAPQVLILDHKAIGGFVTHCGWNSAIEGIAAGLPMVTWPMGAEQFYNEKLLTKVLRIGVNVGATELVKKGKLISRAQVEKAVREVIGGEKAEERRLWAKKLGEMAKAAVEEGGSSYNDVNKFMEELNGRK",Specific activity (nkat/mg protein) 3-O-glc,[1],11.58 nkat/mg protein
same,Specific activity (nkat/mg protein) 3′-O-glc,[1],— (Activity lower than 0.02 nkat/mg protein has been considered as trace activity and is not shown in the Table.)
same,Specific activity (nkat/mg protein) 4′-O-glc,[1],— (Activity lower than 0.02 nkat/mg protein has been considered as trace activity and is not shown in the Table.)
same,Specific activity (nkat/mg protein) 7-O-glc,[1],— (Activity lower than 0.02 nkat/mg protein has been considered as trace activity and is not shown in the Table.)
"UGT74F1: Arabidopsis recombinant glycosyltransferase (protein, UniProt O22820 1-449, looked up) Flavonol …: MEKMRGHVLAVPFPSQGHITPIRQFCKRLHSKGFKTTHTLTTFIFNTIHLDPSSPISIATISDGYDQGGFSSAGSVPEYLQNFKTFGSKTVADIIRKHQSTDNPITCIVYDSFMPWALDLAMDFGLAAAPFFTQSCAVNYINYLSYINNGSLTLPIKDLPLLELQDLPTFVTPTGSHLAYFEMVLQQFTNFDKADFVLVNSFHDLDLHEEELLSKVCPVLTIGPTVPSMYLDQQIKSDNDYDLNLFDLKEAALCTDWLDKRPEGSVVYIAFGSMAKLSSEQMEEIASAISNFSYLWVVRASEESKLPPGFLETVDKDKSLVLKWSPQLQVLSNKAIGCFMTHCGWNSTMEGLSLGVPMVAMPQWTDQPMNAKYIQDVWKVGVRVKAEKESGICKREEIEFSIKEVMEGEKSKEMKENAGKWRDLAVKSLSEGGSTDININEFVSKIQIK",Culture medium (μg/ml in supernatant) 4′-O-glc,[2]; [3],0.19 µg/mL
same,Culture medium (μg/ml in supernatant) 7-O-glc,[2]; [3],0.53 µg/mL
"UGT76E12: Arabidopsis recombinant glycosyltransferase (protein, UniProt Q94AB5 1-458, looked up) Flavonol …: MQVLGMEEKPARRSVVLVPFPAQGHISPMMQLAKTLHLKGFSITVVQTKFNYFSPSDDFTHDFQFVTIPESLPESDFKNLGPIQFLFKLNKECKVSFKDCLGQLVLQQSNEISCVIYDEFMYFAEAAAKECKLPNIIFSTTSATAFACRSVFDKLYANNVQAPLKETKGQQEELVPEFYPLRYKDFPVSRFASLESIMEVYRNTVDKRTASSVIINTASCLESSSLSFLQQQQLQIPVYPIGPLHMVASAPTSLLEENKSCIEWLNKQKVNSVIYISMGSIALMEINEIMEVASGLAASNQHFLWVIRPGSIPGSEWIESMPEEFSKMVLDRGYIVKWAPQKEVLSHPAVGGFWSHCGWNSTLESIGQGVPMICRPFSGDQKVNARYLECVWKIGIQVEGELDRGVVERAVKRLMVDEEGEEMRKRAFSLKEQLRASVKSGGSSHNSLEEFVHFIRTL","Culture medium (μg/ml in supernatant) 3,7-di-O-glc",[2]; [3],0.71 µg/mL
same,Culture medium (μg/ml in supernatant) 7-O-glc,[2]; [3],4.74 µg/mL
same,Culture medium (μg/ml in supernatant) 3-O-glc,"[2]; E. coli, 2x YT medium, 0.1 mM IPTG, 0.1 mM quercetin, 24 h, no added UDP-glucose",1.41 µg/mL
same,di-O-glucoside formation from quercetin,[1],significant levels of di-O-glucosides
same,Specific activity (nkat/mg protein) 3-O-glc,[1],1.16 nkat/mg protein
same,Specific activity (nkat/mg protein) 3′-O-glc,[1],— (Activity lower than 0.02 nkat/mg protein has been considered as trace activity and is not shown in the Table.)
same,Specific activity (nkat/mg protein) 4′-O-glc,[1],— (Activity lower than 0.02 nkat/mg protein has been considered as trace activity and is not shown in the Table.)
same,Specific activity (nkat/mg protein) 7-O-glc,[1],1.35 nkat/mg protein
"UGT71D1: Arabidopsis recombinant glycosyltransferase (protein, UniProt O82383 1-467, looked up) UDP-glycosyltransferase 71D1: MRNVELIFIPTPTVGHLVPFLEFARRLIEQDDRIRITILLMKLQGQSHLDTYVKSIASSQPFVRFIDVPELEEKPTLGSTQSVEAYVYDVIERNIPLVRNIVMDILTSLALDGVKVKGLVVDFFCLPMIDVAKDISLPFYVFLTTNSGFLAMMQYLADRHSRDTSVFVRNSEEMLSIPGFVNPVPANVLPSALFVEDGYDAYVKLAILFTKANGILVNSSFDIEPYSVNHFLQEQNYPSVYAVGPIFDLKAQPHPEQDLTRRDELMKWLDDQPEASVVFLCFGSMARLRGSLVKEIAHGLELCQYRFLWSLRKEEVTKDDLPEGFLDRVDGRGMICGWSPQVEILAHKAVGGFVSHCGWNSIVESLWFGVPIVTWPMYAEQQLNAFLMVKELKLAVELKLDYRVHSDEIVNANEIETAIRYVMDTDNNVVRKRVMDISQMIQRATKNGGSSFAAIEKFIYDVIGIKP",Specific activity (nkat/mg protein) 3-O-glc,[1],4.19 nkat/mg protein
same,Specific activity (nkat/mg protein) 3′-O-glc,[1],— (Activity lower than 0.02 nkat/mg protein has been considered as trace activity and is not shown in the Table.)
same,Specific activity (nkat/mg protein) 4′-O-glc,[1],— (Activity lower than 0.02 nkat/mg protein has been considered as trace activity and is not shown in the Table.)
same,Specific activity (nkat/mg protein) 7-O-glc,[1],— (Activity lower than 0.02 nkat/mg protein has been considered as trace activity and is not shown in the Table.)
"UGT71C1: Arabidopsis recombinant glycosyltransferase (protein, UniProt O82381 1-481, looked up) Flavonol …: MGKQEDAELVIIPFPFSGHILATIELAKRLISQDNPRIHTITILYWGLPFIPQADTIAFLRSLVKNEPRIRLVTLPEVQDPPPMELFVEFAESYILEYVKKMVPIIREALSTLLSSRDESGSVRVAGLVLDFFCVPMIDVGNEFNLPSYIFLTCSAGFLGMMKYLPERHREIKSEFNRSFNEELNLIPGYVNSVPTKVLPSGLFMKETYEPWVELAERFPEAKGILVNSYTALEPNGFKYFDRCPDNYPTIYPIGPILCSNDRPNLDSSERDRIITWLDDQPESSVVFLCFGSLKNLSATQINEIAQALEIVDCKFIWSFRTNPKEYASPYEALPHGFMDRVMDQGIVCGWAPQVEILAHKAVGGFVSHCGWNSILESLGFGVPIATWPMYAEQQLNAFTMVKELGLALEMRLDYVSEDGDIVKADEIAGTVRSLMDGVDVPKSKVKEIAEAGKEAVDGGSSFLAVKRFIGDLIDGVSISK",Culture medium (μg/ml in supernatant) 3′-O-glc,[2]; [3],8.00 µg/mL
same,"Culture medium (μg/ml in supernatant) 7,3′-di-O-glc",[2]; [3],10.90 µg/mL
same,Culture medium (μg/ml in supernatant) 7-O-glc,[2]; [3],2.12 µg/mL
same,aglycone converted to glucosides,"[2]; within 6 h, E. coli in 75 ml standard culture medium, no supplementary UDP-glucose",~50%
same,di-O-glucoside formation from quercetin,[1],significant levels of di-O-glucosides
same,Specific activity (nkat/mg protein) 3-O-glc,[1],— (Activity lower than 0.02 nkat/mg protein has been considered as trace activity and is not shown in the Table.)
same,Specific activity (nkat/mg protein) 3′-O-glc,[1],1.19 nkat/mg protein
same,Specific activity (nkat/mg protein) 4′-O-glc,[1],— (Activity lower than 0.02 nkat/mg protein has been considered as trace activity and is not shown in the Table.)
same,Specific activity (nkat/mg protein) 7-O-glc,[1],0.85 nkat/mg protein
